tested on: Escherichia coli TOP10; test: shrunken log2 fold change of peptide-encoding DNA abundance (4.5 h post-induction vs induction); higher = less antimicrobial activity (less host growth inhibition); details: time post-induction: 4.5 h; library: site-saturation at positions 5, 18, 19, 20
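Further: peptides expressed intracellularly from a pBAD plasmid library in pooled LB shake-flask culture, induced with 0.3% L-arabinose, DNA abundance read by NGS, three biological replicates, DESeq2 with apeglm shrinkage.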

Compared with RRIRPRPPRLPRPRPRPNVKPRP, RRIRNRPPRLPRPRPRPGCVPRP is higher in “shrunken log2 fold change” value: -0.475 for the first, 0.634 for the second.

RRIRGRPPRLPRPRPRPHDGPRP and RRIRHRPPRLPRPRPRPCMPPRP are within 0.2 log units of each other in “shrunken log2 fold change” value: 0.0288 for the first, 0.0401 for the second.

First: RRIRGRPPRLPRPRPRPIPQPRP
Second: RRIRHRPPRLPRPRPRPVTYPRP
The “shrunken log2 fold change” value of the first is higher: 0.358 for the first, -0.181 for the second.

Compared with RRIRGRPPRLPRPRPRPHNYPRP, RRIRVRPPRLPRPRPRPFHEPRP is higher in “shrunken log2 fold change” value: -0.248 for the first, 0.324 for the second.

RRIRERPPRLPRPRPRPTHQPRP and RRIRNRPPRLPRPRPRPCVPPRP are within 0.2 log units of each other in “shrunken log2 fold change” value: -0.135 for the first, -0.00911 for the second.

Compared with RRIRNRPPRLPRPRPRPLEHPRP, RRIRIRPPRLPRPRPRPTVAPRP is higher in “shrunken log2 fold change” value: -0.0225 for the first, 0.334 for the second.

RRIRDRPPRLPRPRPRPISDPRP and RRIRLRPPRLPRPRPRPVIWPRP are within 0.2 log units of each other in “shrunken log2 fold change” value: 0.0148 for the first, 0.0724 for the second.

Going from RRIRCRPPRLPRPRPRPMHMPRP to RRIRNRPPRLPRPRPRPLHNPRP, the “shrunken log2 fold change” value falls from -0.14 to -0.503.

Going from RRIRCRPPRLPRPRPRPCSYPRP to RRIRQRPPRLPRPRPRPTYHPRP, the “shrunken log2 fold change” value rises from -0.895 to -0.184.

Compared with RRIRYRPPRLPRPRPRPYVIPRP, RRIRIRPPRLPRPRPRPPEGPRP is higher in “shrunken log2 fold change” value: -1.19 for the first, 0.115 for the second.

Going from RRIRIRPPRLPRPRPRPETHPRP to RRIRDRPPRLPRPRPRPLTNPRP, the “shrunken log2 fold change” value rises from -0.413 to -0.19.

Going from RRIRLRPPRLPRPRPRPFADPRP to RRIRQRPPRLPRPRPRPFCQPRP, the “shrunken log2 fold change” value rises from 0.0979 to 0.53.

Going from RRIRDRPPRLPRPRPRPIIQPRP to RRIRYRPPRLPRPRPRPKYTPRP, the “shrunken log2 fold change” value falls from -0.0678 to -0.415.

RRIRIRPPRLPRPRPRPAKSPRP and RRIRWRPPRLPRPRPRPCEDPRP are within 0.2 log units of each other in “shrunken log2 fold change” value: -0.0109 for the first, 0.115 for the second.

Compared with RRIRARPPRLPRPRPRPLLAPRP, RRIRHRPPRLPRPRPRPCPGPRP is lower in “shrunken log2 fold change” value: 0.949 for the first, -0.541 for the second.

Going from RRIRCRPPRLPRPRPRPEIDPRP to RRIRMRPPRLPRPRPRPWKCPRP, the “shrunken log2 fold change” value falls from 0.138 to -0.174.

First: RRIRYRPPRLPRPRPRPHTRPRP
Second: RRIRQRPPRLPRPRPRPLKTPRP
The “shrunken log2 fold change” value of the first is lower: -0.494 for the first, 0.0342 for the second.

RRIRQRPPRLPRPRPRPHCCPRP and RRIRDRPPRLPRPRPRPNSPPRP are within 0.2 log units of each other in “shrunken log2 fold change” value: -0.0421 for the first, -0.0573 for the second.

Compared with RRIRDRPPRLPRPRPRPSDDPRP, RRIRHRPPRLPRPRPRPSNWPRP is lower in “shrunken log2 fold change” value: 0.126 for the first, -0.106 for the second.

Compared with RRIRYRPPRLPRPRPRPKFCPRP, RRIRERPPRLPRPRPRPPDAPRP is higher in “shrunken log2 fold change” value: -0.291 for the first, 0.142 for the second.

First: RRIRQRPPRLPRPRPRPWWPPRP
Second: RRIRWRPPRLPRPRPRPAMPPRP
The “shrunken log2 fold change” value of the first is lower: -0.119 for the first, 0.446 for the second.

RRIRQRPPRLPRPRPRPVFYPRP and RRIRVRPPRLPRPRPRPQSLPRP are within 0.2 log units of each other in “shrunken log2 fold change” value: -0.147 for the first, 0.0116 for the second.

RRIRPRPPRLPRPRPRPIEAPRP and RRIRKRPPRLPRPRPRPQTDPRP are within 0.2 log units of each other in “shrunken log2 fold change” value: 0.0713 for the first, -0.00442 for the second.

Going from RRIRQRPPRLPRPRPRPYCRPRP to RRIRPRPPRLPRPRPRPAWTPRP, the “shrunken log2 fold change” value rises from -0.00101 to 0.492.

Going from RRIRKRPPRLPRPRPRPHVVPRP to RRIRKRPPRLPRPRPRPGRDPRP, the “shrunken log2 fold change” value rises from -0.183 to 0.688.

First: RRIRSRPPRLPRPRPRPCTDPRP
Second: RRIRWRPPRLPRPRPRPALPPRP
The “shrunken log2 fold change” value of the first is lower: -0.11 for the first, 0.374 for the second.

RRIRFRPPRLPRPRPRPYECPRP and RRIRSRPPRLPRPRPRPDNCPRP are within 0.2 log units of each other in “shrunken log2 fold change” value: -0.0179 for the first, -0.103 for the second.

RRIRWRPPRLPRPRPRPWDVPRP and RRIRYRPPRLPRPRPRPRWEPRP are within 0.2 log units of each other in “shrunken log2 fold change” value: 0.0249 for the first, -0.0931 for the second.

First: RRIRNRPPRLPRPRPRPTPLPRP
Second: RRIRNRPPRLPRPRPRPRVIPRP
The “shrunken log2 fold change” value of the first is higher: 0.268 for the first, -0.21 for the second.

Going from RRIRLRPPRLPRPRPRPARHPRP to RRIRYRPPRLPRPRPRPQFPPRP, the “shrunken log2 fold change” value falls from 0.148 to -0.0877.

Going from RRIRWRPPRLPRPRPRPPMQPRP to RRIRERPPRLPRPRPRPLTYPRP, the “shrunken log2 fold change” value falls from 0.322 to -0.188.

Compared with RRIRMRPPRLPRPRPRPGMPPRP, RRIRWRPPRLPRPRPRPHAWPRP is lower in “shrunken log2 fold change” value: 0.522 for the first, 0.0328 for the second.

First: RRIRKRPPRLPRPRPRPMQWPRP
Second: RRIRSRPPRLPRPRPRPNGYPRP
The “shrunken log2 fold change” value of the first is higher: 0.263 for the first, -0.12 for the second.

First: RRIRKRPPRLPRPRPRPAKPPRP
Second: RRIRSRPPRLPRPRPRPCLVPRP
The “shrunken log2 fold change” value of the first is higher: 0.464 for the first, -0.379 for the second.

Compared with RRIRVRPPRLPRPRPRPEMQPRP, RRIRCRPPRLPRPRPRPIFCPRP is lower in “shrunken log2 fold change” value: 0.175 for the first, -0.339 for the second.

Compared with RRIRYRPPRLPRPRPRPFISPRP, RRIRDRPPRLPRPRPRPSQMPRP is higher in “shrunken log2 fold change” value: -0.341 for the first, 0.0862 for the second.

Going from RRIRGRPPRLPRPRPRPFCHPRP to RRIRYRPPRLPRPRPRPYKWPRP, the “shrunken log2 fold change” value falls from 0.418 to -0.169.

Compared with RRIRWRPPRLPRPRPRPYPKPRP, RRIRPRPPRLPRPRPRPRYLPRP is lower in “shrunken log2 fold change” value: 0.11 for the first, -0.402 for the second.

Compared with RRIRARPPRLPRPRPRPGGNPRP, RRIRARPPRLPRPRPRPEASPRP is higher in “shrunken log2 fold change” value: 0.2 for the first, 1.19 for the second.

First: RRIRRRPPRLPRPRPRPQAYPRP
Second: RRIRYRPPRLPRPRPRPDWHPRP
The “shrunken log2 fold change” value of the first is higher: 0.0231 for the first, -0.32 for the second.

RRIRPRPPRLPRPRPRPCFVPRP and RRIRIRPPRLPRPRPRPYGAPRP are within 0.2 log units of each other in “shrunken log2 fold change” value: -0.18 for the first, -0.199 for the second.

Going from RRIRWRPPRLPRPRPRPDDSPRP to RRIRPRPPRLPRPRPRPNSDPRP, the “shrunken log2 fold change” value falls from -0.183 to -0.39.

Compared with RRIRPRPPRLPRPRPRPFHVPRP, RRIRWRPPRLPRPRPRPPECPRP is higher in “shrunken log2 fold change” value: -0.428 for the first, -0.0729 for the second.

First: RRIRARPPRLPRPRPRPCARPRP
Second: RRIRFRPPRLPRPRPRPDWNPRP
The “shrunken log2 fold change” value of the first is higher: 0.786 for the first, -0.287 for the second.

RRIRQRPPRLPRPRPRPCHEPRP and RRIRCRPPRLPRPRPRPFASPRP are within 0.2 log units of each other in “shrunken log2 fold change” value: -0.0663 for the first, 0.0328 for the second.

RRIRERPPRLPRPRPRPTPMPRP and RRIRLRPPRLPRPRPRPMVEPRP are within 0.2 log units of each other in “shrunken log2 fold change” value: 0.0913 for the first, -0.0178 for the second.

Compared with RRIRSRPPRLPRPRPRPRYCPRP, RRIRYRPPRLPRPRPRPIARPRP is higher in “shrunken log2 fold change” value: -0.483 for the first, 0.00902 for the second.

First: RRIRPRPPRLPRPRPRPYNKPRP
Second: RRIRPRPPRLPRPRPRPDYKPRP
The “shrunken log2 fold change” value of the first is lower: -1.16 for the first, -0.66 for the second.

RRIRWRPPRLPRPRPRPGMDPRP and RRIRGRPPRLPRPRPRPGTDPRP are within 0.2 log units of each other in “shrunken log2 fold change” value: 0.317 for the first, 0.472 for the second.

Compared with RRIRMRPPRLPRPRPRPASGPRP, RRIRNRPPRLPRPRPRPSWPPRP is lower in “shrunken log2 fold change” value: 0.652 for the first, -0.0605 for the second.

Going from RRIRTRPPRLPRPRPRPVYNPRP to RRIRFRPPRLPRPRPRPYTGPRP, the “shrunken log2 fold change” value rises from -0.239 to -0.0357.

RRIRMRPPRLPRPRPRPARFPRP and RRIRRRPPRLPRPRPRPGTQPRP are within 0.2 log units of each other in “shrunken log2 fold change” value: 0.251 for the first, 0.0536 for the second.

RRIRNRPPRLPRPRPRPAIMPRP and RRIRERPPRLPRPRPRPWSIPRP are within 0.2 log units of each other in “shrunken log2 fold change” value: -0.0978 for the first, 0.0521 for the second.

Compared with RRIRYRPPRLPRPRPRPAIPPRP, RRIRARPPRLPRPRPRPFHQPRP is higher in “shrunken log2 fold change” value: -0.66 for the first, -0.211 for the second.

With RRIRQRPPRLPRPRPRPTHRPRP the “shrunken log2 fold change” value was -0.000309.
